Source: publication PMC9258321, “Structure-guided design of CPPC-paired disulfide-rich peptide libraries for ligand and drug discovery†” (Chemical Science, 2022)
Ends that are not written are not given here.

Target: T1, Kelch domain of Keap1
T1 construct: Keap1, Kelch domain; The Kelch domain is named for the phage selection; the SPR sentences say only 'Keap1'
Experiment: SPR; Keap1 with oxidized peptides, concentration-dependent
Conditions: both partners purified

B1: drp5-a (peptide)
chain: CPPCHGRPTCDEETGECWELLTCPPC
modifications: disulfide (positions not given here); also: oxidized (disulfides), pairing of this isomer not given here
- Kd: 153 nM
